# According to PMC4669242 (Bioorganic & medicinal chemistry letters, 2013):
# Tests used:
# [1] = system: human red blood cells (hRBCs); assay: Hemolysis assay, release of hemoglobin; assay type: cell-based; settings: hRBCs in PBS pH 7.4, 1 h, 37 °C, OD405; average of two independent experiments
# E. coli = assay: Leakage of intracellular β-galactosidase; assay type: cell-based, E. coli (ATCC 25922); settings: 1 h of treatment, 37 °C, ONPG, OD405, average of three independent experiments
substance,measurement,setting,value
Melittin,concentration inducing hemolysis (lowest concentration tested),[1],≤ 1000 nM
same,increase in β-galactosidase release as compared to control buffer,E. coli,8 fold
